This is an account of results in patent US20260071233A1.

The target of this assay is Recombinant rat IFN-γ (rat) (UniProt P01581).
Sequence of UniProt P01581 (P01581 23-156 limits assumed): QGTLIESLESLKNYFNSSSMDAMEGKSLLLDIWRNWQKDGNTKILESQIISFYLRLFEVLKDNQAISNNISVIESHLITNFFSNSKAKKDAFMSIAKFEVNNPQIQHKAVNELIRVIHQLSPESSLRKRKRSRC

With Recombinant B8R protein, the percent neutralization is over 50%.
